What was measured:
[1] = molecular target: the molecule itself; assay: native MS + SEC-MALS; dimer to monomer ratio told for both methods together; self-association, dimer
[2] = molecular target: the molecule itself; assay: SEC-MALS; printed as MALS (multi-angle laser light scattering) of hETHE1 after purification, two peaks; self-association
[3] = molecular target: the molecule itself; assay: native MS; non-denaturing electrospray soft-ionization MS; 15 µM hETHE1 in 15 mM ammonium acetate buffer (pH 7.5); cone voltage 80 V; self-association, dimer

B1: human ethylmalonic encephalopathy protein 1 (hETHE1), lacking its 20 residue N-terminal mitochondrial targeting sequence (enzyme, UniProt O95571 21-254, looked up)
chain: APILLRQMFEPVSCTFTYLLGDRESREAVLIDPVLETAPRDAQLIKELGLRLLYAVNTHCHADHITGSGLLRSLLPGCQSVISRLSGAQADLHIEDGDSIRFGRFALETRASPGHTPGCVTFVLNDHSMAFTGDALLIRGCGRTDFQQGCAKTLYHSVHEKIFTLPGDCLIYPAHDYHGFTVSTVEEERTLNPRLTLSCEEFVKIMGNLNLPKPQQIDFAVPANMRCGVQTPTA
modifications: Cys247 refined as cysteinyl sulfinic acid (CSD247) in the crystal; +30 Da seen only in the dimer by non-denaturing mass spectrometry
notes: the start at residue 21 is worked out from that statement; Printed masses: monomer 26 116 Da, dimer 52 232 Da; also called human persulfide dioxygenase; sulphur dioxygenase; not shown: His6, N-terminal, cleaved
B1 was tested, and the “dimer to monomer ratio” value [1] was about 10, the “stoichiometry N” value [2] was 4 and the “stoichiometry N” value [3] was 2.
